Test results as given in the supplement of paper PMC9112550, “Optimization of the antimicrobial peptide Bac7 by deep mutational scanning” (BMC Biology, 2022).

Each sequence was assayed on Escherichia coli TOP10 (assay: shrunken log2 fold change of peptide-encoding DNA abundance (4.5 h post-induction vs induction); higher = less antimicrobial activity (less host growth inhibition)). Conditions: time post-induction: 4.5 h; library: site-saturation at positions 5, 18, 19, 20.
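Note: peptides expressed intracellularly from a pBAD plasmid library in pooled LB shake-flask culture, induced with 0.3% L-arabinose, DNA abundance read by NGS, three biological replicates, DESeq2 with apeglm shrinkage.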

RRIRARPPRLPRPRPRPRLEPRP was tested. Which “shrunken log2 fold change” value did it give?
Its value is 0.766.

With RRIRARPPRLPRPRPRPRNPPRP as the sequence, how does the “shrunken log2 fold change” value read?
The value was 0.225.

Which “shrunken log2 fold change” value does the source give for RRIRARPPRLPRPRPRPRQAPRP here?
The value was 0.414.

Which “shrunken log2 fold change” value does the source give for RRIRARPPRLPRPRPRPRQKPRP here?
The value was 0.055.

How did the “shrunken log2 fold change” value turn out when RRIRARPPRLPRPRPRPRQQPRP was run?
The value was 0.277.

How did the “shrunken log2 fold change” value turn out when RRIRARPPRLPRPRPRPRQTPRP was run?
Its value is 0.535.

For RRIRARPPRLPRPRPRPRRCPRP, which “shrunken log2 fold change” value is on record?
Its value is 0.519.

With RRIRARPPRLPRPRPRPRRNPRP as the sequence, how does the “shrunken log2 fold change” value read?
The value was 0.308.

RRIRARPPRLPRPRPRPRRTPRP was tested. Which “shrunken log2 fold change” value did it give?
Its value is 0.577.

For RRIRARPPRLPRPRPRPRSPPRP, which “shrunken log2 fold change” value is on record?
Its value is 0.871.

RRIRARPPRLPRPRPRPRSVPRP was tested. Which “shrunken log2 fold change” value did it give?
Its value is 0.665.

With RRIRARPPRLPRPRPRPRTWPRP as the sequence, how does the “shrunken log2 fold change” value read?
The value was 0.669.

With RRIRARPPRLPRPRPRPRYFPRP as the sequence, how does the “shrunken log2 fold change” value read?
Its value is -0.0939.

How did the “shrunken log2 fold change” value turn out when RRIRARPPRLPRPRPRPRYHPRP was run?
The value was -0.135.

RRIRARPPRLPRPRPRPRYNPRP was tested. Which “shrunken log2 fold change” value did it give?
Its value is -0.487.

With RRIRARPPRLPRPRPRPRYWPRP as the sequence, how does the “shrunken log2 fold change” value read?
The value was 0.213.

How did the “shrunken log2 fold change” value turn out when RRIRARPPRLPRPRPRPSACPRP was run?
The value was 0.359.

With RRIRARPPRLPRPRPRPSCGPRP as the sequence, how does the “shrunken log2 fold change” value read?
Its value is 0.287.

For RRIRARPPRLPRPRPRPSCMPRP, which “shrunken log2 fold change” value is on record?
Its value is 0.29.

Which “shrunken log2 fold change” value does the source give for RRIRARPPRLPRPRPRPSCNPRP here?
The value was -0.515.

For RRIRARPPRLPRPRPRPSCYPRP, which “shrunken log2 fold change” value is on record?
The value was 0.0075.

For RRIRARPPRLPRPRPRPSEPPRP, which “shrunken log2 fold change” value is on record?
Its value is 0.11.

Which “shrunken log2 fold change” value does the source give for RRIRARPPRLPRPRPRPSFEPRP here?
Its value is 0.327.

For RRIRARPPRLPRPRPRPSFKPRP, which “shrunken log2 fold change” value is on record?
The value was -0.109.

With RRIRARPPRLPRPRPRPSFRPRP as the sequence, how does the “shrunken log2 fold change” value read?
Its value is -0.262.

How did the “shrunken log2 fold change” value turn out when RRIRARPPRLPRPRPRPSGFPRP was run?
Its value is 0.0172.

Which “shrunken log2 fold change” value does the source give for RRIRARPPRLPRPRPRPSHEPRP here?
The value was 0.415.

RRIRARPPRLPRPRPRPSKCPRP was tested. Which “shrunken log2 fold change” value did it give?
The value was -0.0295.

Which “shrunken log2 fold change” value does the source give for RRIRARPPRLPRPRPRPSKHPRP here?
The value was -0.11.

Which “shrunken log2 fold change” value does the source give for RRIRARPPRLPRPRPRPSKNPRP here?
The value was 0.235.

Which “shrunken log2 fold change” value does the source give for RRIRARPPRLPRPRPRPSKWPRP here?
Its value is -0.101.

How did the “shrunken log2 fold change” value turn out when RRIRARPPRLPRPRPRPSLDPRP was run?
The value was 0.735.

Which “shrunken log2 fold change” value does the source give for RRIRARPPRLPRPRPRPSLLPRP here?
Its value is 0.321.

Which “shrunken log2 fold change” value does the source give for RRIRARPPRLPRPRPRPSMCPRP here?
The value was -0.081.

With RRIRARPPRLPRPRPRPSMMPRP as the sequence, how does the “shrunken log2 fold change” value read?
Its value is 0.162.

Which “shrunken log2 fold change” value does the source give for RRIRARPPRLPRPRPRPSMVPRP here?
Its value is -0.263.

For RRIRARPPRLPRPRPRPSNIPRP, which “shrunken log2 fold change” value is on record?
Its value is -0.447.

With RRIRARPPRLPRPRPRPSPCPRP as the sequence, how does the “shrunken log2 fold change” value read?
The value was 0.0808.

Which “shrunken log2 fold change” value does the source give for RRIRARPPRLPRPRPRPSPEPRP here?
The value was 0.41.

Which “shrunken log2 fold change” value does the source give for RRIRARPPRLPRPRPRPSPLPRP here?
Its value is 0.238.

How did the “shrunken log2 fold change” value turn out when RRIRARPPRLPRPRPRPSPYPRP was run?
Its value is -0.333.

For RRIRARPPRLPRPRPRPSQTPRP, which “shrunken log2 fold change” value is on record?
The value was 0.416.

For RRIRARPPRLPRPRPRPSREPRP, which “shrunken log2 fold change” value is on record?
The value was 0.816.

RRIRARPPRLPRPRPRPSRKPRP was tested. Which “shrunken log2 fold change” value did it give?
The value was 0.00605.

With RRIRARPPRLPRPRPRPSRPPRP as the sequence, how does the “shrunken log2 fold change” value read?
The value was 0.612.

Which “shrunken log2 fold change” value does the source give for RRIRARPPRLPRPRPRPSSPPRP here?
Its value is 0.0282.

How did the “shrunken log2 fold change” value turn out when RRIRARPPRLPRPRPRPSTHPRP was run?
The value was -0.0532.

Which “shrunken log2 fold change” value does the source give for RRIRARPPRLPRPRPRPSVNPRP here?
The value was -0.383.

With RRIRARPPRLPRPRPRPSVSPRP as the sequence, how does the “shrunken log2 fold change” value read?
Its value is -0.457.

RRIRARPPRLPRPRPRPSWCPRP was tested. Which “shrunken log2 fold change” value did it give?
The value was -0.207.

Which “shrunken log2 fold change” value does the source give for RRIRARPPRLPRPRPRPSWPPRP here?
Its value is 0.164.

For RRIRARPPRLPRPRPRPSWRPRP, which “shrunken log2 fold change” value is on record?
The value was 0.263.

For RRIRARPPRLPRPRPRPSWSPRP, which “shrunken log2 fold change” value is on record?
Its value is 0.0204.

How did the “shrunken log2 fold change” value turn out when RRIRARPPRLPRPRPRPSWYPRP was run?
Its value is -0.25.

RRIRARPPRLPRPRPRPSYNPRP was tested. Which “shrunken log2 fold change” value did it give?
Its value is -0.428.

For RRIRARPPRLPRPRPRPTALPRP, which “shrunken log2 fold change” value is on record?
The value was 0.513.

For RRIRARPPRLPRPRPRPTDSPRP, which “shrunken log2 fold change” value is on record?
Its value is 0.00832.

With RRIRARPPRLPRPRPRPTGQPRP as the sequence, how does the “shrunken log2 fold change” value read?
Its value is 0.65.

Which “shrunken log2 fold change” value does the source give for RRIRARPPRLPRPRPRPTHCPRP here?
Its value is 0.518.

How did the “shrunken log2 fold change” value turn out when RRIRARPPRLPRPRPRPTHDPRP was run?
Its value is 0.645.

Which “shrunken log2 fold change” value does the source give for RRIRARPPRLPRPRPRPTHMPRP here?
The value was 0.156.

With RRIRARPPRLPRPRPRPTICPRP as the sequence, how does the “shrunken log2 fold change” value read?
The value was 0.144.

Which “shrunken log2 fold change” value does the source give for RRIRARPPRLPRPRPRPTIIPRP here?
Its value is -0.0837.

How did the “shrunken log2 fold change” value turn out when RRIRARPPRLPRPRPRPTKQPRP was run?
Its value is -0.148.

How did the “shrunken log2 fold change” value turn out when RRIRARPPRLPRPRPRPTKWPRP was run?
The value was 0.4.

RRIRARPPRLPRPRPRPTLGPRP was tested. Which “shrunken log2 fold change” value did it give?
The value was 0.504.

How did the “shrunken log2 fold change” value turn out when RRIRARPPRLPRPRPRPTMCPRP was run?
Its value is -0.198.

With RRIRARPPRLPRPRPRPTMPPRP as the sequence, how does the “shrunken log2 fold change” value read?
Its value is 0.364.

Which “shrunken log2 fold change” value does the source give for RRIRARPPRLPRPRPRPTMRPRP here?
Its value is 0.976.

With RRIRARPPRLPRPRPRPTNGPRP as the sequence, how does the “shrunken log2 fold change” value read?
The value was -0.0688.

With RRIRARPPRLPRPRPRPTNIPRP as the sequence, how does the “shrunken log2 fold change” value read?
The value was -0.354.

With RRIRARPPRLPRPRPRPTRYPRP as the sequence, how does the “shrunken log2 fold change” value read?
The value was 0.356.

RRIRARPPRLPRPRPRPTSWPRP was tested. Which “shrunken log2 fold change” value did it give?
Its value is 0.756.

RRIRARPPRLPRPRPRPTTHPRP was tested. Which “shrunken log2 fold change” value did it give?
Its value is 0.38.

With RRIRARPPRLPRPRPRPTTNPRP as the sequence, how does the “shrunken log2 fold change” value read?
The value was 0.389.
